{"source": "paper PMC10641069", "about": "“Intra- and inter-molecular regulation by intrinsically-disordered regions governs PUF protein RNA binding” (Nature Communications, 2023)", "molecules": {"B1": {"name": "FBF-2 CT peptide (FBF-2 residues 601-632) (peptide, UniProt Q09312 601-632, looked up)", "chain": "NGIEEGSLMLEPRSNKSSVSVKFSSSGSHGDD", "notes": "holds the PIM SLMLEPR (607-613); The tag was cleaved with Ulp1 protease; also called FBF-2^601–632; source: E. coli BL21-CodonPlus (DE3)-RIL, purified (Ni-NTA, HiTrap Q flow-through, Superdex 75); not shown: His6-SUMO, N-terminal, cleaved"}}, "key": {"FBF-2 RBD + CT": {"biological_target": "T1, FBF-2 RBD + CT (Caenorhabditis elegans, UniProt Q09312)", "T1 construct": "A cDNA fragment encoding C. elegans FBF-2 RBD + CT (residues 164-632) was cloned into the pSMT3 vector; His6-SUMO (N, cleaved yes); made in house; host or cells: E. coli BL21-CodonPlus (DE3)-RIL", "T1 sequence (Q09312 whole entry, looked up)": "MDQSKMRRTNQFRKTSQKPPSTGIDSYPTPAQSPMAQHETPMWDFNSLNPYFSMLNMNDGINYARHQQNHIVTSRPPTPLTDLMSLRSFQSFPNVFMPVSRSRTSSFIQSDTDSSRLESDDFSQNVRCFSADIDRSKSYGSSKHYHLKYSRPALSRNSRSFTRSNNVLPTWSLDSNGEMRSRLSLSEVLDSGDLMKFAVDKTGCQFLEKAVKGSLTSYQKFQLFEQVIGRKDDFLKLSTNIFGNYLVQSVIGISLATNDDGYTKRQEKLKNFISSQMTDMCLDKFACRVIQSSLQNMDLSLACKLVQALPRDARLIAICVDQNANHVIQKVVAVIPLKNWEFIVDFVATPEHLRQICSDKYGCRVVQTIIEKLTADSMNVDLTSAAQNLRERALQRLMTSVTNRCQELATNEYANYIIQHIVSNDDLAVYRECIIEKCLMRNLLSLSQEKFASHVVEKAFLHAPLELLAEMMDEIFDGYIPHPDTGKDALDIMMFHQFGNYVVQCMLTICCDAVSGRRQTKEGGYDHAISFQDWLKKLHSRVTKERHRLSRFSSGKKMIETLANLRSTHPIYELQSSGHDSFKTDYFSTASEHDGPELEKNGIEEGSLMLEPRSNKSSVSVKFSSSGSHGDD", "assay": "ITC, peptide into FBF-2 RBD + CT, no RNA", "type": "binding, C. elegans", "conditions": "mean of two independent replicates; 20 °C, 20 mM HEPES pH 7.4, 150 mM NaCl, 0.5 mM TCEP; one-site model"}, "FBF-2 RBD + CT L610A": {"biological_target": "T2, FBF-2 RBD + CT L610A (Caenorhabditis elegans, UniProt Q09312, L610A)", "T2 construct": "A cDNA fragment encoding C. elegans FBF-2 RBD + CT (residues 164-632) was cloned into the pSMT3 vector; His6-SUMO (N, cleaved yes); made in house; host or cells: E. coli BL21-CodonPlus (DE3)-RIL (as for wild type)", "T2 sequence (Q09312 164-632 L610A)": "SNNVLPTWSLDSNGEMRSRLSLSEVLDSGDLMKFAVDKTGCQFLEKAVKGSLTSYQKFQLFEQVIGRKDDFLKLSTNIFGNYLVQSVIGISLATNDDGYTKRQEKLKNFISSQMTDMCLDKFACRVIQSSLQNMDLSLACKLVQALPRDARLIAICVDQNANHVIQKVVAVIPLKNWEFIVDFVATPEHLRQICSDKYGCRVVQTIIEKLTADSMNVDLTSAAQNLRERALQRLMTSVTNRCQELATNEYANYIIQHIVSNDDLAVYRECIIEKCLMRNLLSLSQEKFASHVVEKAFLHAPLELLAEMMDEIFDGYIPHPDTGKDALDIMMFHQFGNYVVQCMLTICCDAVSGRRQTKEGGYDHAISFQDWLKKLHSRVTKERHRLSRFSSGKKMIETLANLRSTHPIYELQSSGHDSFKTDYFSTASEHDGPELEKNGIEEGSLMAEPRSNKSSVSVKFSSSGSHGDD", "type": "binding, C. elegans", "conditions": "pH 7.4"}, "gld-1 FBEa RNA": {"tested_on": "gld-1 FBEa RNA", "conditions": "LST-1 peptide with FBF-2 RBD (no CT); cited from earlier work", "excerpt": "LST-1 is expressed in GSCs in response to signaling from the stem cell niche. The LST-1 protein is largely unstructured (Fig. 1b), including an N-terminal region that is sufficient for self-renewal of GSCs[22]. This LST-1 IDR region harbors two PUF Interacting Motifs (PIMs), LST-1 A and LST-1 B, that interact with FBF-2, each with a KxxL sequence[17],[22]. Crystal structures of FBF-2 bound to LST-1 A or B identify a seven-residue core region, including the KxxL sequence, that binds to FBF-2 with similar peptide backbone structure[17],[18]. The two LST-1 PIMs are biologically redundant for ... || If the FBF-2 CT reduces RNA-binding affinity (Fig. 3b) and competes with LST-1 for binding (Fig. 2c, d), why then does FBF-2 depend on LST-1 to repress RNAs in nematodes? To address this question, we explored RNA-binding affinities of FBF-2 RBD + CT in the presence of either LST-1 A or LST-1 B (Fig. 6; Supplementary Table 3). In contrast to results with FBF-2 RBD alone[17],[18], both LST-1 A and LST-1 B increased the RNA-binding affinity of FBF-2 RBD + CT."}, "FBF-2 RBD [1]": {"biological_target": "T3, FBF-2 RBD (Caenorhabditis elegans, UniProt Q09312)", "T3 construct": "The FBF-2 RBD protein (residue 164-575) was purified as described previously; His6-SUMO (N, cleaved yes); made in house; host or cells: E. coli BL21-CodonPlus (DE3)-RIL (host inferred: b50 says the procedure was otherwise the same as for RBD + CT)", "T3 sequence (Q09312 whole entry, looked up)": "T1 sequence (Q09312 whole entry, looked up)", "conditions": "reported previously, cited from earlier work", "excerpt": "Given that the core residues of three distinct PIMs—FBF-2 CT, LST-1 A, and LST-1 B—all bind to the same site of FBF-2, we hypothesized that the intramolecular FBF-2 CT binding could compete with LST-1 A and LST-1 B binding. To assess that idea, we investigated how the CT affects the protein interaction affinities of the FBF-2 RBD to LST-1 A and LST-1 B, using isothermal titration calorimetry (ITC, Supplementary Table 3). No RNA was included in these experiments. We first measured the binding affinity of an isolated CT peptide and the FBF-2 RBD (no CT), by titrating the peptide, FBF-2^601–632, ... || Fig. 2 The FBF-2 CT competes with partner proteins for binding to the RBD. Representative isothermal titration calorimetry thermograms (top, differential power [DP] vs time) and corresponding titration curve-fitting graphs (bottom) are shown for interaction between a FBF-2 RBD and FBF-2 CT, c FBF-2 RBD + CT and LST-1 A, d FBF-2 RBD + CT and LST-1 B, e FBF-2 RBD and FBF-2 CT L610A, f FBF-2 RBD + CT L610A and LST-1 A, and g FBF-2 RBD + CT L610A and LST-1 B. Data points on the curve-fitting graphs are shown as open circles. b Previously reported mean Kd from two independent replicates with simila ... || We next compared the protein interaction affinities of LST-1 A or LST-1 B with either FBF-2 RBD + CT or RBD alone (Fig. 2c–g, Supplementary Table 3). For these experiments, we titrated the LST-1 peptide into an ITC cell containing either RBD + CT or RBD."}, "FBF-2 RBD [2]": {"biological_target": "T3, FBF-2 RBD", "type": "binding, C. elegans", "conditions": "mean of two independent replicates, 20 °C, 20 mM HEPES pH 7.4, 150 mM NaCl, 0.5 mM TCEP, one-site model", "protocol": "To assess that idea, we investigated how the CT affects the protein interaction affinities of the FBF-2 RBD to LST-1 A and LST-1 B, using isothermal titration calorimetry (ITC, Supplementary Table 3). No RNA was included in these experiments.\nExperiments were performed at 20 °C using a MicroCal PEAQ-ITC Automated (Malvern Instruments) with a 200-μL standard cell and a 40-μL titration syringe. FBF-2 and LST-1 variants were prepared in a buffer of 20 mM HEPES pH 7.4, 150 mM NaCl, and 0.5 mM TCEP by gel filtration. LST-1 (100–400 µM) was titrated from the syringe into the cell containing FBF-2 (10–30 µM) in 2 µl aliquots. Experiments were performed in duplicate due to the limitation of the amount of protein needed. Data were analyzed using the MicroCal PEAQ-ITC Analysis Software (version 1.40) provided by the manufacturer with the one-site model (Table S3).\nSupplementary Table 3. Protein interaction affinities, stoichiometries, and thermodynamic parameters between FBF-2 CT/LST-1 variants and FBF-2 measured by ITC. Two technical replicates (n=2 independent experiments) were performed for each analysis with similar results, and the values are shown for each replicate. Source data are provided as a Source Data file. […]\nRBD+CT LST-1 A none Not detected\nRBD FBF-2 CT none Not detected\n1 Reported previously 18."}, "[3]": {"biological_target": "T4, FBF-2 RBD (FBF-2 residues 164-575) (C. elegans, UniProt Q09312 164-575)", "T4 construct": "The tag was cleaved with TEV protease; also called FBF-2^164–575; RBD alone; source: E. coli, purified (Ni-NTA, heparin, Superdex 75); not shown: His6-SUMO, N-terminal, cleaved", "T4 sequence (looked up)": "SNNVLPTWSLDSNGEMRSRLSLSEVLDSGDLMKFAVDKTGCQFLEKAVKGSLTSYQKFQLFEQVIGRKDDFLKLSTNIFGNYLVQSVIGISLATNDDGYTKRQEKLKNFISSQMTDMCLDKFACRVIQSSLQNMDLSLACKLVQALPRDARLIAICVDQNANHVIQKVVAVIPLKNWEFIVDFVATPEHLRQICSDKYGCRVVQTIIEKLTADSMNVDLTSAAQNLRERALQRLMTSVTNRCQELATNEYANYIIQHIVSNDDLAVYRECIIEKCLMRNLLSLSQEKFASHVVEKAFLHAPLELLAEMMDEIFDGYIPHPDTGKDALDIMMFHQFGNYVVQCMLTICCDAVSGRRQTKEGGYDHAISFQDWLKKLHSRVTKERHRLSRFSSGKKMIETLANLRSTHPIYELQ", "assay": "ITC; peptide (100–400 µM) titrated from the syringe into the cell containing FBF-2 (10–30 µM); 20 °C; 20 mM HEPES pH 7.4, 150 mM NaCl, 0.5 mM TCEP; no RNA; one-site model; mean of two replicates", "conditions": "both partners purified"}}, "note": "Entries after “also recorded” stand apart in the source; their conditions may differ. Like-named read-outs stand apart in the source and are kept apart here."}
{"molecule": "LST-1 A: LST-1 A peptide, residues 19–50, expressed in E. coli (STIAYSKSQHEAPKQLLQLRSEIKPLIPLNQP; left off: His6-SUMO, N-terminal, cleaved)", "values": [{"measurement": "Kd", "setting": "FBF-2 RBD + CT", "value": "No binding; also recorded: too weak to be detected by ITC; also recorded: Not detected"}, {"measurement": "∆G", "setting": "FBF-2 RBD + CT L610A", "value": -31.9, "unit": "kJ/mol"}, {"measurement": "-T∆S", "setting": "FBF-2 RBD + CT L610A; replicate 1, 20 °C", "value": 18.6, "unit": "kJ/mol"}, {"measurement": "∆G", "setting": "FBF-2 RBD + CT L610A; replicate 1, 20 °C", "value": -31.4, "unit": "kJ/mol"}, {"measurement": "∆H", "setting": "FBF-2 RBD + CT L610A; replicate 1, 20 °C", "value": -50.0, "unit": "kJ/mol"}, {"measurement": "-T∆S", "setting": "FBF-2 RBD + CT L610A; replicate 2, 20 °C", "value": 19.8, "unit": "kJ/mol"}, {"measurement": "∆H", "setting": "FBF-2 RBD + CT L610A; replicate 2, 20 °C", "value": -51.7, "unit": "kJ/mol"}, {"measurement": "effect on RNA-binding affinity of FBF-2 RBD", "setting": "gld-1 FBEa RNA", "value": "no effect on RNA-binding affinity"}, {"measurement": "-T∆S", "setting": "FBF-2 RBD [1]; replicate 1", "value": 25.4, "unit": "kJ/mol"}, {"measurement": "∆G", "setting": "FBF-2 RBD [1]; replicate 1", "value": -31.9, "unit": "kJ/mol"}, {"measurement": "∆H", "setting": "FBF-2 RBD [1]; replicate 1", "value": -57.3, "unit": "kJ/mol"}, {"measurement": "-T∆S", "setting": "FBF-2 RBD [1]; replicate 2", "value": 25.1, "unit": "kJ/mol"}, {"measurement": "∆G", "setting": "FBF-2 RBD [1]; replicate 2", "value": -32.0, "unit": "kJ/mol"}, {"measurement": "∆H", "setting": "FBF-2 RBD [1]; replicate 2", "value": -57.1, "unit": "kJ/mol"}]}
{"molecule": "FBF-2 CT L610A: FBF-2 CT (601-632) with L610A (NGIEEGSLMAEPRSNKSSVSVKFSSSGSHGDD)", "values": [{"measurement": "Kd", "setting": "FBF-2 RBD [2]", "value": "No binding; also recorded: Not detected"}, {"measurement": "Kd", "setting": "FBF-2 RBD [2]; listed as CT peptide with L610A", "value": "No binding was detected"}]}
{"molecule": "B1", "values": [{"measurement": "Kd", "setting": "[3]", "value": 35, "unit": "µM"}]}
